Measurements from patent US20220306757A1 (HANGZHOU SUMGEN BIOTECH, published 2022).

Legend:
[1] = target: T1, recombinant BCMA-His (ACRO Biosystems) (UniProt Q02223 1-54); assay: SPR (BIACORE), antibody captured by anti-human IgG, BCMA as mobile phase 0.15625-20 nM
T1 construct: also called target antigen BCMA; antigen BCMA; not shown: His tag
T1 sequence (looked up): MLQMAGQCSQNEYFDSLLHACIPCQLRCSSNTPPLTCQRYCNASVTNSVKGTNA
Procedure: The antibody affinity was analyzed with BIACORE biomacromolecular interaction analyzer (GE Co.). Anti-human IgG antibodies (purchased from GE) were coupled on a chip, and utilized to capture the SG1116 antibody, of which the concentration was set as 3 μg/mL, and the sampling time was 120 seconds; with the antigen BCMA as the mobile phase, a gradient of 8 concentrations (0.15625, 0.3125, 0.625, 1.25, 2.5, 5, 10, 20 nM) was used, and the binding time was 120 seconds; the dissociation time was 300 seconds; each antibody was regenerated using 3 M of magnesium chloride (purchased from GE) for a time period of 30 seconds.

[2] = target: T2, BCMA on CHOS cells stably expressing BCMA (CHOS-BCMA) (UniProt Q02223 1-184); assay: cell-based or functional assay
T2 sequence (looked up): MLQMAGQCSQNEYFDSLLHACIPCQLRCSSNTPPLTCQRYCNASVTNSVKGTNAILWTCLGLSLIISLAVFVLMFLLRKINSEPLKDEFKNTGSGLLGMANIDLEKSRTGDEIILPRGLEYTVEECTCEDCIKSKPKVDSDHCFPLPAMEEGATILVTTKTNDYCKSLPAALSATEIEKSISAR

[3] = target: T3, BCMA on the surface of human myeloma U266 cells (human, UniProt Q02223 1-184); assay: cell-based or functional assay
T3 sequence (looked up): T2 sequence (looked up)

[4] = target: T1, recombinant BCMA-His (ACRO Biosystems); assay: ELISA, BCMA-His coated at 1 µg/ml, anti-human IgG HRP detection
Procedure: ELISA strips were coated with the target antigen BCMA-His at 1 μg/ml, overnight at 4° C. After washing with PBST, 10% of fetal calf serum was added for blocking at 37° C. for 1 hour. Different concentrations of the antibody SG1116 was added to react at 37° C. for 1 hour. After washing with PBST, horseradish peroxidase-labeled goat anti-human IgG secondary antibody (Goat anti human ([…]), thermo Fisher Scientific) was added to react at 37° C. for 30 minutes. The plate was washed with PBST repeatedly for 5 times, and patted on absorbent paper so as to dry the remaining droplets as much as possible. Each well was added with […] TMB (eBioscience), placed in dark at room temperature (20±5° C.) for 1.5 min. Each well was added with 100 μl of 2N H₂SO₄ stop solution to terminate the reaction of the substrate. The OD values at 450 nm were read with a Microplate reader. The binding ability of the antibody to the target antigen BCMA was analyzed.

[5] = target: T2, BCMA on CHOS cells stably expressing …; assay: flow cytometry on CHOS-BCMA cells, PE anti-human IgG detection
Procedure: (§1) With human myeloma U266 cells as well as CHOS cells (CHOS-BCMA) stably expressing BCMA constructed by genetic engineering technology as representative cell models, the binding of BCMA on the cell surface to SG1116 was analyzed by flow cytometry. Cells at the logarithmic growth phase were collected, adjusted to a cell density of 5×10⁶ cells/mL, and precooled on ice. The SG1116 antibody was diluted with pre-cooled normal saline containing 2% FBS to 20 μg/ml. 100 μl of cells were taken and added into an equal volume of the above diluted SG1116 antibody, and reacted in dark at 4° C. for 30 min. At the end of the reaction, they were washed twice with pre-cooled normal saline containing 2% FBS (6000 rpm, 45 s). A secondary antibody PE mouse anti-human IgG (BD Pharmingen) was diluted with pre-cooled normal saline containing 2% FBS at a ratio of 1:5. 100 μl of cells were taken and resuspended, and reacted in dark at 4° C. for 30 min. At the end of the reaction, they were washed twice with pre-cooled normal saline containing 2% FBS (6000 rpm, 45 s). The cells were resuspended with 400 μl of 1% (v/v) paraformaldehyde. The binding ability of the antibody to the antigen on the cell surface was analyzed with a flow cytometer (BD Calibur).

[6] = target: T4, CD19 (Sino Biological Inc.) (UniProt P15391 20-291); assay: ELISA, proteins coated at 1 ug/ml, HRP goat anti-human IgG, OD450
T4 construct: Specificity control
T4 sequence (looked up): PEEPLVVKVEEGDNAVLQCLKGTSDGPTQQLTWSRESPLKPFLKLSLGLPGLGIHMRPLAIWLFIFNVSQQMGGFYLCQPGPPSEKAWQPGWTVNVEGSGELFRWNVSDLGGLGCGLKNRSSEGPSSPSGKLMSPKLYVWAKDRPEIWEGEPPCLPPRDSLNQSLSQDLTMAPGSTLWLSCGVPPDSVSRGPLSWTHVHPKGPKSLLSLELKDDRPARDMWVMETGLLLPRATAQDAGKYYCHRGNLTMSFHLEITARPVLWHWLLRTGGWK
Procedure: (§2) ELISA strips were coated with milk (Beijing Biomed Biotech Co., Ltd.), BSA (BOVOGEN), CD19 (Sino Biological Inc.), TROP2 (Sino Biological Inc.), BCMA (ACRO Biosystems), CD47 (Sino Biological Inc.), CD38 (Sino Biological Inc.), Gas6 (R&D) and various proteins as well as AXL (ACRO Biosystems), respectively, at 1 μg/ml, overnight at 4° C. After washing with PBST, 10% of fetal calf serum was added for blocking at 37° C. for 1 hour. The antibody SG1116 was added to react at 37° C. for 1 hour. After washing with PBST, horseradish peroxidase-labeled goat anti-human IgG secondary antibody (Goat anti human (HRP), Thermo Fisher Scientific) was added to react at room temperature for 30 minutes. The plate was washed with PBST repeatedly for 5 times, and patted on absorbent paper so as to dry the remaining droplets as much as possible. Each well was added with 100 μl TMB (eBioscience, #85-00-420), placed in dark at room temperature ([…]) for 1.5 min. Each well was added with 100 μl of 2N H₂SO₄ stop solution to terminate the reaction of the substrate. The OD values at 450 nm were read with a Microplate reader. The binding ability of the antibody to protein was analyzed.

[7] = target: T5, AXL (ACRO Biosystems) (UniProt P30530 33-449, limits assumed); assay: as above
T5 construct: Specificity control
T5 sequence (looked up): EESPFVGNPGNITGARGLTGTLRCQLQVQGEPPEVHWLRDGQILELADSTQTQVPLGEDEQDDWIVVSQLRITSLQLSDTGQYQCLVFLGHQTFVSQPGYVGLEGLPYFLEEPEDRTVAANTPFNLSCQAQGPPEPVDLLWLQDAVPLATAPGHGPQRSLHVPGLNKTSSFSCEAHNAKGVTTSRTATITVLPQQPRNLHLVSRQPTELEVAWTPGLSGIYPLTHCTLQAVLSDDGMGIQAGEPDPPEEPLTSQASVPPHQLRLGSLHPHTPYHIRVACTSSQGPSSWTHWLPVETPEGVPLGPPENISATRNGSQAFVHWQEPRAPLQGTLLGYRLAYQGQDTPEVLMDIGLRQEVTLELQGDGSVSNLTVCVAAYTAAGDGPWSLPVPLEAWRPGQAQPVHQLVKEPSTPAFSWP
Procedure: as §2

[8] = target: T6, TROP2 (Sino Biological Inc.) (UniProt P09758 27-274); assay: as above
T6 construct: Specificity control
T6 sequence (looked up): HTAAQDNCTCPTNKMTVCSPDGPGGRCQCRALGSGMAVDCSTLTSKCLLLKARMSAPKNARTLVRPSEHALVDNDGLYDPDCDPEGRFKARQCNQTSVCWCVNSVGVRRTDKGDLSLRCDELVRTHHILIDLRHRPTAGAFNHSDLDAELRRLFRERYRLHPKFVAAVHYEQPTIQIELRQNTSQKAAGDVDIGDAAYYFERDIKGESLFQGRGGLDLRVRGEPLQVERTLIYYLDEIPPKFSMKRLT
Procedure: as §2

[9] = target: T7, Gas6 (R&D) (UniProt Q14393 49-678, limits assumed); assay: as above
T7 construct: Specificity control
T7 sequence (looked up): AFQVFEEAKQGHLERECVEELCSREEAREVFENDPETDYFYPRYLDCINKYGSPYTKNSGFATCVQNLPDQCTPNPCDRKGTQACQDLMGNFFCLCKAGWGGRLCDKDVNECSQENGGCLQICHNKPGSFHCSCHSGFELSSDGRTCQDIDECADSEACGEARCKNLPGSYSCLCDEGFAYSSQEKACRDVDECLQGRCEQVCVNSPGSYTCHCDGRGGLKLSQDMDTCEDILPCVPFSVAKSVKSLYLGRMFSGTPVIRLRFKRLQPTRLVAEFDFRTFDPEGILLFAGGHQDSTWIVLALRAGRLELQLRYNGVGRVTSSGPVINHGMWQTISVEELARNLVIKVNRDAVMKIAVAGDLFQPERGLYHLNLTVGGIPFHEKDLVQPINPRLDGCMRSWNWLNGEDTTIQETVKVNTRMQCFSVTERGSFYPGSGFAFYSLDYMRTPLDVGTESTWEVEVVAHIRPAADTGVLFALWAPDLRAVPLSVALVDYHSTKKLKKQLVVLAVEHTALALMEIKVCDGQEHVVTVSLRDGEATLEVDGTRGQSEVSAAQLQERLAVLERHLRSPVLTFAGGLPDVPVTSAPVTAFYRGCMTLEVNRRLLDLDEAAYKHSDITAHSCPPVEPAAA
Procedure: as §2

[10] = target: T8, CD38 (Sino Biological Inc.) (UniProt P28907 43-300); assay: as above
T8 construct: Specificity control
T8 sequence (looked up): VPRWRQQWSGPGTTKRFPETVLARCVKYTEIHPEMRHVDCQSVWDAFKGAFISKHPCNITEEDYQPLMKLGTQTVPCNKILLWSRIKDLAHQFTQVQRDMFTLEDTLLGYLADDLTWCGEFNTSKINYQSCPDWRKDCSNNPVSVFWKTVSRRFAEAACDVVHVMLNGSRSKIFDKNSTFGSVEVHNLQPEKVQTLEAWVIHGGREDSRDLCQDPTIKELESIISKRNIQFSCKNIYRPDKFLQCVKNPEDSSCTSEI
Procedure: as §2

[11] = target: T9, BSA (BOVOGEN) (UniProt P02769 25-607); assay: as above
T9 construct: Specificity control
Procedure: as §2

[12] = target: T10, CD47 (Sino Biological Inc.) (UniProt Q08722 19-139); assay: as above
T10 construct: Specificity control
Procedure: as §2

[13] = target: T3, BCMA on the surface of human myeloma …; assay: flow cytometry on U266 cells, PE anti-human IgG detection
Procedure: as §1

T10 sequence (Q08722 19-139 limits assumed): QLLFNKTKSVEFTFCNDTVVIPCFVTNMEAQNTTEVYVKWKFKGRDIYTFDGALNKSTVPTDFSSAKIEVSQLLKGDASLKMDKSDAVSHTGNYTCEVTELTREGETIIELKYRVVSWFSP
T9 sequence (P02769 25-607 limits assumed): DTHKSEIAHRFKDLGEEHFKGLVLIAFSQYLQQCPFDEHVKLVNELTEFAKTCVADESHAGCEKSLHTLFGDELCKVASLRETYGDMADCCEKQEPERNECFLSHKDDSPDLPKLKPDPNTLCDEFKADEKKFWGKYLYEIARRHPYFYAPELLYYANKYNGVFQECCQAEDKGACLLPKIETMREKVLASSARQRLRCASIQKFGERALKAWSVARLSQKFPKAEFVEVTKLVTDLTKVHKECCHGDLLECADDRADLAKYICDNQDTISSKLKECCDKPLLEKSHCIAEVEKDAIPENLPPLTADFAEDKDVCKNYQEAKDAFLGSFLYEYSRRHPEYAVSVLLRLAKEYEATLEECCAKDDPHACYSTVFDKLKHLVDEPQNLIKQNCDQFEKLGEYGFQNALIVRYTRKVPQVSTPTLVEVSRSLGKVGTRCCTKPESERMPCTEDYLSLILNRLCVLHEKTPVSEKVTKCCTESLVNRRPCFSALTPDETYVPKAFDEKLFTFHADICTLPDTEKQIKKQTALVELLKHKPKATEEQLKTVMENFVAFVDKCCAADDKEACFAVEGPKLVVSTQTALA

B1: SG1116 antibody (antibody, human IgG1, V domains shown)
VH: QVQLVQSGPELKKPGETVKISCKASGYTFSRYSMNWVRQAPGKGLEWMGRINTGSGAPIYADDFKGRFTFSVDTSASTAYLVINNLKSEDTASYFCSNDYNYSLDHWGQGTAVTVSS
VL: DIVLTQSPPSLAMSLGKRATISCRASESVTILGSHLIYWYQQKPGQPPTLLIQLASNVQTGVPARFSGSGSRTDFTLTIDPVEEDDVAVYYCLQSRTIPRTFGGGTKLEIK
notes: also called antibody SG1116; SGT116
- Kd [1]: 1.39 nM
- koff [1]: 0.0171 s⁻¹
- kon [1]: 1.23e+07 M⁻¹ s⁻¹
- internalization efficiency EC50 (flow cytometry, surface MFI at 4°C against 37°C) [2]: 0.00327 µg/mL
- internalization efficiency EC50 (flow cytometry, surface MFI at 4°C against 37°C) [3]: 0.178 µg/mL
- EC50 [4]: 0.0565 µg/mL
- EC50 [5]: 0.622 µg/mL
- binding result [6]: no binding
- binding result [7]: no binding
- binding result [8]: no binding
- binding result [9]: no binding
- binding result [10]: no binding
- binding result [11]: no binding
- binding result [12]: no binding
- EC50 [13]: 4.29 µg/mL

B2: immunoconjugate SG1116-DM1 (antibody, V domains shown)
VH: B1 VH
VL: B1 VL
modifications: maytansine derivative DM1 linked through SMCC; conjugation residues and chain not stated
- IC50 of inhibition of proliferation (CCK-8, 72 hours) [3]: 0.347 nM
